The values below come from US20200239543A1 (ALX ONCOLOGY, published 2020).

Test [1] deals with T1, human Fcγ receptor RIIB/C (CD32b/c) (human, UniProt P31994 46-217).
T1 construct: bought recombinant protein; also called CD32c; hFcγR
T1 sequence (looked up): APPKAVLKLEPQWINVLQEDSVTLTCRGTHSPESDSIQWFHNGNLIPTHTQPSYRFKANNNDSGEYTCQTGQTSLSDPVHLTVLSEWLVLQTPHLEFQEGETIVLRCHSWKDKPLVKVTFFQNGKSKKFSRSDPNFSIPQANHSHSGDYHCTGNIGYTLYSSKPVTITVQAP
The test can be described thus: SPR (ProteOn XPR36), biotinylated Fc construct on NLC chip, hFcγR as analyte, KD,app.

Test [2] concerns the target T2, human Fcγ receptor RIIA (CD32a) (human, UniProt P12318 36-218).
T2 construct: bought recombinant protein; also called hFcγR
T2 sequence (looked up): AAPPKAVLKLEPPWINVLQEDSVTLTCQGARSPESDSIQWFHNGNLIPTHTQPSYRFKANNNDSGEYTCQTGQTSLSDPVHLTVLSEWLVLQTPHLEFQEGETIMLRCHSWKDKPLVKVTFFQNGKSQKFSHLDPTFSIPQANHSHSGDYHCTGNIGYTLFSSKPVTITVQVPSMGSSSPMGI
Described as above.

The target in test [3] is T3, human Fcγ receptor RI (CD64) (human, UniProt P12314 16-288).
T3 construct: bought recombinant protein; also called hFcγRI; hFcγR
Described as above.

Test [4] addresses T4, human Fcγ receptor RIIIA (CD16a) (human, UniProt P08637 17-208).
T4 construct: bought recombinant protein; also called hFcγR
Described as above.

In test [5] the target is T2, human Fcγ receptor RIIA (CD32a). The test can be described thus: SPR (ProteOn XPR36), biotinylated Fc construct on NLC chip, hFcγR as analyte.
In test [6] the target is T3, human Fcγ receptor RI (CD64). The test is described as above.
The target in test [7] is T1, human Fcγ receptor RIIB/C (CD32b/c). Described as above.
Test [8] deals with T4, human Fcγ receptor RIIIA (CD16a). The test is described as above.
Test [9] deals with T5, human CD47 (human, UniProt Q08722 19-139).
T5 construct: extracellular domain; also called CD47 ECD
The test can be described thus: SPR as in Example 1.

The next test addresses T6, mouse CD47 (mouse, UniProt Q61735 19-140, limits assumed).
T6 construct: also called mouse CD47 protein
T6 sequence (looked up): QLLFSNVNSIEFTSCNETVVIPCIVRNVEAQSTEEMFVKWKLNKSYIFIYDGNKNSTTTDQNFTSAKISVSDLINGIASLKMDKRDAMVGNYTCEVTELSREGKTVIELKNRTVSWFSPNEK
The test can be described thus: SPR, 25 C, 1:1 Langmuir fit.

In test [10] the target is T5, human CD47. The test can be described thus: SPR, 25 C, 1:1 Langmuir fit.
Test [11] addresses T5, human CD47. The test can be described thus: SPR, 25 C, 1:1 Langmuir fit. The source holds these as a separate data set.
Test [12] concerns the target T5, human CD47. The test can be described thus: SPR; protein made in mammalian cell.
For test [13], the target named is T5, human CD47. The test can be described thus: SPR (Biacore T100 and ProteOn XPR36).
The target of test [14] is T7, EGFR-ECD (epidermal growth factor receptor extracellular domain produced in HEK293 cells) (UniProt P00533 25-645, limits assumed).
T7 construct: extracellular domain
The test can be described thus: SPR (Proteon GLC chip), EGFR-ECD injected in the second injection over construct A bound to immobilised CD47.

T5 sequence (Q08722 19-139 limits assumed): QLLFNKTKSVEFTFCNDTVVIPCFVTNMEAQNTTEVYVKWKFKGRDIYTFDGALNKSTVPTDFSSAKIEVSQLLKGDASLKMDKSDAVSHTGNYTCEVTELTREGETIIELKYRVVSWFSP
T4 sequence (P08637 17-208 limits assumed): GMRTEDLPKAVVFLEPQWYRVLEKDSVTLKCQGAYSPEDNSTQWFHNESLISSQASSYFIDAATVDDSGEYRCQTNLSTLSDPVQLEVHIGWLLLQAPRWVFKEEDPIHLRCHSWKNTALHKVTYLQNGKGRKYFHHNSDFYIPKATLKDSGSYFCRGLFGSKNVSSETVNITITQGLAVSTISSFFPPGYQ
T3 sequence (P12314 16-288 limits assumed): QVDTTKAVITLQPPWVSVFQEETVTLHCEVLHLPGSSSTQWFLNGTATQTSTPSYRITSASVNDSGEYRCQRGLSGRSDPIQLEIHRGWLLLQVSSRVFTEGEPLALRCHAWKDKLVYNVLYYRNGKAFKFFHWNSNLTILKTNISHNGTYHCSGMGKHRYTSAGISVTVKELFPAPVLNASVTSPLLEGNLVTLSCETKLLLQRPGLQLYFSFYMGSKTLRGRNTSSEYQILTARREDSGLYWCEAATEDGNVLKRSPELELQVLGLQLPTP

Turning to “Fc variant construct IgG4_S228P (Fc fusion)”, the values for the Kd in test [1], in test [2] and in test [3] were 850 nM, 810 nM and 1 nM, respectively.

With “Fc variant construct IgG4_S228P, E233P, F234V, L235A, delG236 (Fc fusion)”, the Kd was 1600 nM in [2] and 2100 nM in [3].

With “Fc variant construct IgG4_S228P, L235E (Fc fusion)”, the Kd was determined as 1100 nM in test [1], 2400 nM in test [4], 1200 nM in test [2] and 60 nM in [3].

B1: SIRP-α D1 variant fused to Fc variant IgG1 L234A, L235A, G237A, N297A, SEQ ID NO: 96 (Fc fusion)
chain: EEELQIIQPDKSVLVAAGETATLRCTITSLFPVGPIQWFRGAGPGRVLIYNQRQGPFPRVTTVSDTTKRNNMDFSIRIGNITPADAGTYYCIKFRKGSPDDVEFKSGAGTELSVRAKPSDKTHTCPPCPAPEAAGAPSVFLFPPKPKDTLMISRTPEVTCVVVDVSHEDPEVKFNWYVDGVEVHNAKTKPREEQYASTYRVVSVLTVLHQDWLNGKEYKCKVSNKALPAPIEKTISKAKGQPREPQVYTLPPSREEMTKNQVSLTCLVKGFYPSDIAVEWESNGQPENNYKTTPPVLDSDGSFFLYSKLTVDKSRWQQGNVFSCSVMHEALHNHYTQKSLSLSPGK
On to B1, for which the binding result in [5], in test [6], in test [7] and in [8] was “no binding (tested: 5000 nM)” in each case. The Kd came out at 0.0351 nM with human CD47 [9], 33.2 nM in the test with mouse CD47 and 0.0104 nM in the test with human CD47 [10].

B2: SIRP-α Fc construct with Fc variant IgG1_AAA (L234A, L235A, G237A), SEQ ID NO: 124 (Fc fusion)
chain: EEELQIIQPDKSVLVAAGETATLRCTITSLFPVGPIQWFRGAGPGRVLIYNQRQGPFPRVTTVSDTTKRNNMDFSIRIGNITPADAGTYYCIKFRKGSPDDVEFKSGAGTELSVRAKPSDKTHTCPPCPAPEAAGAPSVFLFPPKPKDTLMISRTPEVTCVVVDVSHEDPEVKFNWYVDGVEVHNAKTKPREEQYNSTYRVVSVLTVLHQDWLNGKEYKCKVSNKALPAPIEKTISKAKGQPREPQVYTLPPSREEMTKNQVSLTCLVKGFYPSDIAVEWESNGQPENNYKTTPPVLDSDGSFFLYSKLTVDKSRWQQGNVFSCSVMHEALHNHYTQKSLSLSPGK
On to B2, for which the Kd in test [2] was found to be 2300 nM; in test [3], 8000 nM. Besides, the binding result in test [7] and in test [8] was “no binding (tested: 5000 nM)” in each case.

B3: SIRP-α D1 variant polypeptide of SEQ ID NO: 71 (receptor)
chain: EEELQVIQPDKSVLVAAGETATLRCTATSLFPVGPIQWFRGAGPGRELIYNQRQGPFPRVTTVSDLTKRNNMDFSIRIGNITPADAGTYYCVKFRKGSPDDVEFKSGAGTELSVRAKPS
notes: engineered SIRP-α D1 domain
For B3, the Kd with human CD47 [11] and with human CD47 [12] was 4.94 nM each time.

B4: SIRP-α D1 variant polypeptide of SEQ ID NO: 73 (receptor)
chain: EEELQVIQPDKSVLVAAGETATLRCTITSLFPVGPIQWFRGAGPGRELIYNQREGPFPRVTTVSDTTKRNNMDFSIRIGNITPADAGTYYCVKFRKGSPDDVEFKSGAGTELSVRAKPS
notes: engineered SIRP-α D1 domain
Turning to B4, the Kd with human CD47 [11] and with human CD47 [12] was 0.448 nM each time.

B5: SIRP-α D1 variant polypeptide of SEQ ID NO: 76 (receptor)
chain: EEELQVIQPDKSVLVAAGETATLRCTATSLFPVGPIQWFRGAGPGRELIYNQREGPFPRVTTVSDLTKRNNMDFSIRIGNITPADAGTYYCVKFRKGSPDDVEFKSGAGTELSVRAKPS
notes: engineered SIRP-α D1 domain
As to B5, the Kd with human CD47 [11] and with human CD47 [12] was 7.41 nM in each case.

B6: SIRP-α D1 variant polypeptide of SEQ ID NO: 75 (receptor)
chain: EEELQVIQPDKSVLVAAGETATLRCTITSLFPVGPIQWFRGAGPGRELIYNQREGPFPRVTTVSDLTKRNNMDFSIRIGNITPADAGTYYCVKFRKGSPDDVEFKSGAGTELSVRAKPS
notes: engineered SIRP-α D1 domain
For B6, the Kd with human CD47 [11] and in the test with human CD47 [12] was 1.33 nM each time.

B7: SIRP-α D1 variant polypeptide of SEQ ID NO: 77 (receptor)
chain: EEELQIIQPDKSVLVAAGETATLRCTITSLFPVGPIQWFRGAGPGRVLIYNQRQGPFPRVTTVSDTTKRNNMDFSIRIGNITPADAGTYYCIKFRKGSPDDVEFKSGAGTELSVRAKPS
notes: engineered SIRP-α D1 domain
Regarding B7, the Kd in the test with human CD47 [11] and with human CD47 [12] was 0.114 nM each time.

B8: SIRP-α D1 variant polypeptide of SEQ ID NO: 74 (receptor)
chain: EEELQIIQPDKSVLVAAGETATLRCTITSLFPVGPIQWFRGAGPGRELIYNQREGPFPRVTTVSDTTKRNNMDFSIRIGNITPADAGTYYCVKFRKGSPDDVEFKSGAGTELSVRAKPS
notes: engineered SIRP-α D1 domain
With B8, the Kd with human CD47 [11] and with human CD47 [12] was 0.276 nM in each case.

B9: SIRP-α D1 variant polypeptide of SEQ ID NO: 72 (receptor)
chain: EEELQIIQPDKSVLVAAGETATLRCTITSLFPVGPIQWFRGAGPGRELIYNQREGPFPRVTTVSDLTKRNNMDFSIRIGNITPADAGTYYCVKFRKGSPDDVEFKSGAGTELSVRAKPS
notes: engineered SIRP-α D1 domain
For the molecule B9, the Kd in the test with human CD47 [11] and in the test with human CD47 [12] was 0.738 nM in each case.

B10: SIRP-α Fc construct with wildtype IgG2 Fc, SEQ ID NO: 126 (Fc fusion)
chain: EEELQIIQPDKSVLVAAGETATLRCTITSLFPVGPIQWFRGAGPGRVLIYNQRQGPFPRVTTVSDTTKRNNMDFSIRIGNITPADAGTYYCIKFRKGSPDDVEFKSGAGTELSVRAKPSERKCCVECPPCPAPPVAGPSVFLFPPKPKDTLMISRTPEVTCVVVDVSHEDPEVQFNWYVDGVEVHNAKTKPREEQFNSTFRVVSVLTVVHQDWLNGKEYKCKVSNKGLPAPIEKTISKTKGQPREPQVYTLPPSREEMTKNQVSLTCLVKGFYPSDIAVEWESNGQPENNYKTTPPMLDSDGSFFLYSKLTVDKSRWQQGNVFSCSVMHEALHNHYTQKSLSLSPGK
For B10, the Kd in test [2] came to 420 nM; in [3] it was 700 nM. In addition, the binding result in test [7] and in [8] was “no binding (tested: 5000 nM)” each time.

B11: SIRP-α Fc construct with Fc variant IgG2_N297A, SEQ ID NO: 128 (Fc fusion)
chain: EEELQIIQPDKSVLVAAGETATLRCTITSLFPVGPIQWFRGAGPGRVLIYNQRQGPFPRVTTVSDTTKRNNMDFSIRIGNITPADAGTYYCIKFRKGSPDDVEFKSGAGTELSVRAKPSERKCCVECPPCPAPPVAGPSVFLFPPKPKDTLMISRTPEVTCVVVDVSHEDPEVQFNWYVDGVEVHNAKTKPREEQFASTFRVVSVLTVVHQDWLNGKEYKCKVSNKGLPAPIEKTISKTKGQPREPQVYTLPPSREEMTKNQVSLTCLVKGFYPSDIAVEWESNGQPENNYKTTPPMLDSDGSFFLYSKLTVDKSRWQQGNVFSCSVMHEALHNHYTQKSLSLSPGK
In the case of B11, the binding result in [5], in test [6], in test [7] and in [8] was “no binding (tested: 5000 nM)” each time.

B12: SIRP-α-Fc fusion, homodimer of SEQ ID NO: 136 (Fc fusion)
chain: EEELQIIQPDKSVLVAAGETATLRCTITSLFPVGPIQWFRGAGPGRELIYNQREGPFPRVTTVSDTTKRNNMDFSIRIGAITPADAGTYYCVKFRKGSPDDVEFKSGAGTELSVRAKPSDKTHTCPPCPAPEAAGAPSVFLFPPKPKDTLMISRTPEVTCVVVDVSHEDPEVKFNWYVDGVEVHNAKTKPREEQYASTYRVVSVLTVLHQDWLNGKEYKCKVSNKALPAPIEKTISKAKGQPREPQVYTLPPSREEMTKNQVSLTCLVKGFYPSDIAVEWESNGQPENNYKTTPPVLDSDGSFFLYSKLTVDKSRWQQGNVFSCSVMHEALHNHYTQKSLSLSPG
As to B12, the Kd with human CD47 [13] was found to be 0.139 nM. Besides, the binding result in [14] was “no binding”.
